Assay results: publication doi:10.1101/2023.01.09.523197

Target: GlnR147-Alexa647;RNAP holoenzyme (Mycobacterium …, UniProt O53830;P9WGZ1;P9WGY9;P9WGY7;P9WGY5;P9WGI1 1-255;1-347;1-1178;1-1316;1-110;1-528, C61S;L148C|)
Assay: […], SEC in 20 mM Tris-HCl pH 8.0, 75 mM NaCl, 5 mM MgCl2

B1: amtB+2Cy3 (dsDNA)
DNA 1: GCCCCGGCCGTTCACCCACGCGTAACACGCACCGTGCCTTCGTCACGGCGGCGAAACAACGAGGGGCTTCCACCGAAACCGCGCTGCGTCAATGTCGTGGCGCATAACCGGCCCACCCCT
DNA 2: AGGGGTGGGCCGGTTATGCGCCACGACATTGACGCAGCGCGGTTTCGGTGGAAGCCCCTCGTTGTTTCGCCGCCGTGACGAAGGCACGGTGCGTGTTACGCGTGGGTGAACGGCCGGGGC
  binding result: binds
